# Experimental data: patent US20130196320A1, “METHOD FOR IMPROVING CLEAVAGE OF DNA BY ENDONUCLEASE SENSITIVE TO METHYLATION” (CELLECTIS, priority 2010, published 2013)
# What was measured:
# [1] = tested on: XPC4 target CpG motives in 293H cells; assay: DNA methylation of XPC4 target by bisulfite treatment and sequencing, siRNA targeting DNMT1; format: cell-based, human; details: for amount of unmethylated C, % of total: one of the two CpG of XPC4 target; for amount of unmethylated C: the other CpG of XPC4 target
# From the text: FIG. 15: Chromatogram. In order to determine the methylation status of the two CpG motives present in the XPC4 target sequence, genomic DNA was extracted, and treated with bisulfite. Bisulfite treatment is based on a chemical reaction of sodium bisulfite with DNA that converts unmethylated cytosines into uracil whereas methylated cytosines remain unchanged. DNA was then amplified by PCR and sequenced. […] For one of the two CpG ([…]; SEQ ID NO: 24) the amount of unmethylated C was estimated to 20 and 30% of total after 1 nM and 5 nM of si_DNMT1, respectively. For the other CpG ([…]; SEQ ID NO: 24) the amount of unmethylated C was estimated to 25 and 50% after 1 nM and 5 nM of si_DNMT1, respectively.
# (§1) The human 293H cells (ATCC) were plated at a density of 1.2×10^6 cells per 10 cm dish in complete medium (DMEM supplemented with 2 mM L-glutamine, penicillin (100 IU/ml), streptomycin (100 μg/ml), amphotericin B (Fongizone: 0.25 μg/ml, Invitrogen-Life Science) and 10% FBS). The next day, cells were transfected with 5 μg of empty vector pCLS003 (SEQ ID NO: 65) and 1 nM or 5 nM of si_DNMT1 composed of mixture of two siRNA DNMT1—1 ([…], SEQ ID NO: 66) and DNMT1—2 ([…], SEQ ID NO: 67) or with si_AS, a siRNA control with no known human target, using Lipofectamine 2000 as transfection reagent (Invitrogen) according to the manufacturer's protocol. The day after, cells were re-platted at the density of 1.2×10^6 cells per 10 cm. 24 hours after, cells were transfected again with 1 nM or 5 nM of siDNMT1 or si_AS in presence of 3 μg of meganuclease expressing vector (pCLS2510; SEQ ID NO: 68) and 2 μg of empty vector or 5 μg of empty vector (SEQ ID NO: 65), with Lipofectamine 2000 transfection reagent (Invitrogen) according to the manufacturer's protocol.
# To assess the level DNA methylation, DNA sequencing was performed after a bisulfite treatment according to the instructions of the manufacturer (EZ DNA methylation-Gold Kit, Zymo Research). After genomic DNA extraction, the XPC4 target locus was amplified by PCR with specific primers
# [2] = tested on: XPC4 target locus in 293H cells; assay: Meganuclease-induced mutagenesis at XPC4 target locus by deep sequencing, siRNA targeting DNMT1; format: cell-based, human; details: for mutagenesis, PCR fragments carrying a mutation: Empty vector
# Protocol: as §1
# After genomic DNA extraction, the XPC4 target locus was amplified with specific primers flanked by specific adaptator needed for HTS sequencing on the 454 sequencing system (454 Life Sciences)
# 5,000 to 10,000 sequences per sample were analyzed.
# [3] = tested on: CAPNS1 target in human CAPNS1 gene, 293H cells; assay: Meganuclease-induced mutagenesis assay at CAPNS1 recognition site; format: cell-based; details: CAPNS1 meganuclease
# Protocol: (§2) The human 293H cells (ATCC) were plated at a density of 1.2×10^6 cells per 10 cm dish in complete medium (DMEM supplemented with 2 mM L-glutamine, penicillin (100 IU/ml), streptomycin (100 μg/ml), amphotericin B (Fongizone: 0.25 μg/ml, Invitrogen-Life Science) and 10% FBS). The cells were pre-treated with 5-aza-deoxycytidine at 0.2 μM or 1 μM, 48 hours before transfection and the treatment was maintained 48 hours post-transfection. The medium was changed every day. The cells were transfected with 3 μg of DNA plasmids encoding meganuclease for RAG or 2.5 μg of each monomer CAPNS1 using Lipofectamine 2000 transfection reagent (Invitrogen) according to the manufacturer's protocol.
# (§3) The efficiency of the meganuclease to promote mutagenesis at its endogenous recognition site was evaluated by sequencing the DNA surrounding the meganuclease cleavage site. Two days post-transfection, genomic DNA was extracted. 200 ng of genomic DNA were used to amplify (PCR amplification) the endogenous locus surrounding the meganuclease cleavage site. PCR amplification is performed to obtain a fragment flanked by specific adaptor sequences [adaptor A: 5′-[…]-NNNN-3′(SEQ ID NO: 46) and adaptor B, 5′-[…]-3′ (SEQ ID NO: 47)] provided by the company offering sequencing service (GATC Biotech AG, Germany) on the 454 sequencing system (454 Life Sciences). The primers sequences used for PCR amplification were:
# (§4) RAG_R1: 5′-[…]-[…]-3′ (SEQ ID NO: 58) and CAPNS1_J3: 5′-[…]-NNNN-[…] (SEQ ID NO: 59) and CAPNS1_R3: 5′-[…]-[…]-3′ (SEQ ID NO: 60). Sequences specific to the locus are underlined. The sequence NNNN in primer F1 is a Barcode sequence (Tag) needed to link the sequence with a PCR product. The percentage of PCR fragments carrying insertion or deletion at the meganuclease cleavage site is related to the mutagenesis induced by the meganuclease through NHEJ pathway in a cell population, and therefore correlates with the meganuclease activity at its endogenous recognition site. 5000 to 10000 sequences were analyzed per conditions.
# [4] = tested on: RAG target in human RAG1 gene, 293H cells; assay: Meganuclease-induced mutagenesis assay at RAG recognition site; format: cell-based; details: RAG meganuclease
# Protocol: as §2, §3
# RAG_F1: 5′-[…]-NNNN-[…] (SEQ ID NO: 57) and
# as §4
# C1221 DNA target = assay: In vitro cleavage assay with C1221 duplex, increasing meganuclease concentration; format: biochemical
# Protocol: FIG. 2: In vitro cleavage of unmethylated or methylated C1221 by I-CreI. A constant amount of C1221 (50 nM) was incubated with increasing concentrations of I-CreI (0 to 2 μM) in reaction buffer (10 mM Tris-HCl, 150 mM NaCl, 10 mM MgCl2, pH8) for an hour at 37° C. The reaction was stopped and the remaining uncleaved C1221 was quantify and plotted as function of I-CreI concentration.
# FIG. 3: In vitro cleavage of unmethylated or methylated C1221 by I-CreI D75N. 50 nM C1221 containing either 0, 1, 2 or 3 methylated CG was incubated with increasing concentrations of I-CreI D75N (0 to 2 μM) in reaction buffer (10 mM Tris-HCl, 150 mM NaCl, 10 mM MgCl2, pH8) for an hour at 37° C. The reaction was stopped and cleaved and uncleaved C1221 (top and bottom panel respectively) were quantify and plotted as function of I-CreI D75N concentration.
# To investigate the influence of C1221 methylation on the nuclease activity of I-CreI, an in vitro cleavage assay with either unmethylated or fully methylated C1221 duplex (SEQ ID NOs: 4-5 and 12-13 respectively) was performed. A constant amount of C1221 duplex (50 nM) was incubated with increasing concentration of I-CreI (0 to 2 μM) in a total volume of 25 μL of reaction buffer (10 mM Tris-HCl, 150 mM NaCl, 10 mM MgCl2, pH8). Cleavage reaction was allowed to proceed 1 hour at 37° C. and then stopped by addition of 5 μL of 6× stop buffer (45% glycerol, 95 mM EDTA, 1.5% (w/v) SDS, 1.5 mg/mL proteinase K and 0.048% (w/v) bromophenol blue) followed by an hour incubation at 37° C. Cleaved and uncleaved DNA products were separated by PAGE using a TGX Any kD precast gel (Bio-Rad), stained with SYBR Green and then quantified using Quantity One software (Bio-Rad).
# To investigate the influence of C1221 methylation on the nuclease activity of I-CreI D75N, in vitro cleavage assay with C1221 duplex containing either 0, 1, 2 or 3 methylated CG (SEQ ID NOs: 4-5, 6-7, 8-9, 10-11 respectively) was performed, according to the procedure described for I-CreI wild type.
molecule,measurement,setting,value
"si_DNMT1: mixture of two siRNA DNMT1—1 (SEQ ID NO: 66) and DNMT1—2 (SEQ ID NO: 67) targeting DNMT1 gene (chain 1 ACGGTGCTCATGCTTACAACC; chain 2 CCCAATGAGACTGACATCAAA; mixture of two siRNAs, further chemistry not given here)","amount of unmethylated C, % of total",[1]; 1 nM,20%
same,"amount of unmethylated C, % of total",[1]; 5 nM,30%
same,amount of unmethylated C,[1]; 1 nM,25%
same,amount of unmethylated C,[1]; 5 nM,50%
same,"mutagenesis, PCR fragments carrying a mutation",[2]; Si_DNMT1 1 nM,0.022%
same,"mutagenesis, PCR fragments carrying a mutation",[2]; Si_DNMT1 5 nM,0.055%
same,mutagenesis,"[2]; empty vector, 1 or 5 nM of si_DNMT1",low or absent
CAPNS1: engineered heterodimer meganuclease (SEQ ID NO: 62+SEQ ID NO: 63) cleaving the 5′ UTR of the human CAPNS1 gene (protein) chain 1: MANTKYNKEFLLYLAGFVDSDGSIIAQIKPRQSYKFKHQLRLTFYVTQKTQRRWFLDKLVDEIGVGYVEDSGSVSRYVLSEIKPLHNFLTQLQPFLKLKQKQANLVLKIIEQLPSAKESPDKFLEVCTWVDQVAALNDSKTRKTTSETVRAVLDSLSEKKKSSPAAD chain 2: MANTKYNKEFLLYLAGFVDGDGSIVAQIKPNQRAKFKHQLSLTFQVTQKTQRRWLLDKLVDEIGVGYVQDSGSVSNYRLSEIKPLHNFLTQLQPFLKLKQKQANLVLKIIEQLPSAKESPDKFLEVCTWADQIAALNDSKTRKTTSETVRAVLDSLSEKKKPSPAAD,"mutagenesis, PCR fragments carrying a mutation",[3]; 0 μM 5-aza-2′-deoxycytidine,6.10% ± 0.43
same,"mutagenesis, PCR fragments carrying a mutation","[3]; 0 μM 5-aza-2′-deoxycytidine, listed as CAPNS1 meganuclease",6.1%±0.43
same,"mutagenesis, PCR fragments carrying a mutation",[3]; 0.2 μM 5-aza-2′-deoxycytidine,6.55% ± 0.77
same,"mutagenesis, PCR fragments carrying a mutation","[3]; 0.2 μM 5-aza-2′-deoxycytidine, listed as CAPNS1 meganuclease",6.55%±0.77
same,"mutagenesis, PCR fragments carrying a mutation",[3]; 1 μM 5-aza-2′-deoxycytidine,4.34% ± 0.95
same,"mutagenesis, PCR fragments carrying a mutation","[3]; 1 μM 5-aza-2′-deoxycytidine, listed as CAPNS1 meganuclease",4.34%±0.95
RAG: engineered single chain meganuclease (SEQ ID NO: 61) designed to cleave a sequence in the human RAG1 gene (protein) MANTKYNEEFLLYLAGFVDGDGSIIAQINPNQSSKFKHRLRLTFYVTQKTQRRWFLDKLVDEIGVGYVRDSGSVSQYVLSEIKPLHNFLTQLQPFLELKQKQANLVLKIIEQLPSAKESPDKFLEVCTWVDQIAALNDSKTRKTTSETVRAVLDSLSGKKKSSPAAGGSDKYNQALSKYNQALSKYNQALSGGGGSNKKFLLYLAGFVDSDGSIIAQIKPRQSNKFKHQLSLTFAVTQKTQRRWFLDKLVDRIGVGYVYDSGSVSDYRLSEIKPLHNFLTQLQPFLKLKQKQANLVLKIIEQLPSAKESPDKFLEVCTWVDQIAALNDSKTRKTTSETVRAVLDSLSEKKKSSP,"mutagenesis, PCR fragments carrying a mutation",[4]; 0 μM 5-aza-2′-deoxycytidine,0.76% ± 0.02
same,"mutagenesis, PCR fragments carrying a mutation","[4]; 0 μM 5-aza-2′-deoxycytidine, listed as RAG meganuclease",0.75%±0.02
same,"mutagenesis, PCR fragments carrying a mutation",[4]; 0.2 μM 5-aza-2′-deoxycytidine,0.71% ± 0.17
same,"mutagenesis, PCR fragments carrying a mutation","[4]; 0.2 μM 5-aza-2′-deoxycytidine, listed as RAG meganuclease",0.71%±0.17
same,"mutagenesis, PCR fragments carrying a mutation",[4]; 1 μM 5-aza-2′-deoxycytidine,0.59% ± 0.3
same,"mutagenesis, PCR fragments carrying a mutation","[4]; 1 μM 5-aza-2′-deoxycytidine, listed as RAG meganuclease",0.59%±0.31
"I-CreI D75N: I-CreI D75N meganuclease variant, SEQ ID NO: 22 (protein) MANTKYNKEFLLYLAGFVDGDGSIIAQIKPNQSYKFKHQLSLAFQVTQKTQRRWFLDKLVDEIGVGYVRDRGSVSDYILSEIKPLHNFLTQLQPFLKLKQKQANLVLKIIWRLPSAKESPDKFLEVCTWVDQIAALNDSKTRKTTSETVRAVLDSLSEKKKSSPAAD",increase of C50,C1221 DNA target; C1221 with one methyl group on both strand vs unmethylated,about 3 folds
same,increase of C50,C1221 DNA target; C1221 with three methyl groups vs unmethylated,more than 10 folds
same,increase of C50,C1221 DNA target; C1221 with two methyl groups vs unmethylated,more than 10 folds
same,meganuclease concentration at which C1221 cleaved product leveled up,C1221 DNA target; unmethylated C1221,about 500 nM
same,EC50,"C1221 DNA target; unmethylated C1221, 1 hour at 37° C., read-out: C50 (concentration of meganuclease needed to cleave 50% of C1221)",100 to 150 nM
